In a protein production outcome set (Wang et al. 2014) one finds protein production data, which are given here for 19 sequences.

The series is described as follows: label from the status in PepcDB records.
Turning to “MDSGQIILNLVIIVITFFVAAFFVACEFALVQTRPSALEEEQKKRDKPSKRIATSLHMVRNLNEYLSTTQVGVSLAGIILGWIGEQTTEHFVLDFLSLFNLSVSTAVLRGISIVIGVFLLTYLEVVLTEIVPKNIAIDMPLKVMAVITTPLRWFHVMFYPFVWLLNVSSAGVVKMLGIPVANEDNDVYSQAEILNLSRNAVTGGELERNDYLYMERAFEFNDKIAKDIMIDRTQLVVIDINDTVKQAIRVYLQKRFSRLPVVANNDKDKILGYVYNYDLIRQGEVDDDIRVNKLLRNIITIPETTPIQAILQKMIDKQTPIVVVVDEYGGTSGIVTDKDIYEELFGTVNDEIDNVSNEYIEKQADGTYRISGKMTIYDFERYFKTDLQEFEDSDVVTLTGYILDNFPKIQAGDTIQIGNFNFKALDFENAYINWFEVSAQRDSTPDDHNDDQTQD”, the protein production entry is “failed”.
As to “MLADELTIGPIRAVPMDITPKYVGIASGLMNAGSAVADIISPIAFGIIIDKTGNWSLPFYGSVALLVIGIFLTFFMRPDKSL”, the protein production result is “failed”.
The value for “PLKEQKVINTANITTNSKLDLAEYENGLMNIAKEQFDTENHVLQLNQYIPEKLVDELVAKVKAPVLTNIIEQDYFGKQNSNELSLSGVMIGLAMSSSVSNEEAMSKGTEVANQLIEAIHKNDKYNKSPITFAIFKQESTSSLKNGTYIASATVQKNDTNIGNWNAIEEKAYSYPSDEFTQAHGEDNTKIDDFAKEMKGFSPGDFIPVNAKVSYKKNQMDTLNMNIVIKYNGKTELMALTQLAAQIMLEQLPKDAKVQLQIKSENKIEAIVIKEKNSDKPFVSFL” was “not failed”; that for “MDVSNKDAKRTDTIILANFDPITKEAKLISIPRDTRVKIGGKSQKINAAYPIGGEKLVKQLVGNILGVKVDYVVKVDYEGFRGIIDAIGGIDMYIEQDMNYDDPGQDLHIHFNKGETVHLDGKKAEEFFRWRKNNDGTGLVNGDVDRIKNQQKFINAVIDKVLSVSTITKIDSIAEILNKNIETNIPLDVTVAYGLKGLETDKNNIKMMTLPGEGKYVGNVSYYIPDEKATKELRSQLNSSNLSGRKNVIPSAARGDLSIKVLNCTKINGLAANVQKQLNENGYDKVDLEHHHHHH” was “not failed”; that for “MNVEKLKRLQAQVRIGGKGTPRRKKKVMHQTAATDDKKLQSSLKKLSVSTIPGIEEVNIIKDDLTVIHFNNPKAQASLSANTFAVTGHGETRKVVEMLPDILPQLGQETVVQLRMYANAMNSQKGAPGSGDGPLPAEEDDDVPLLVGDFDEVAKVEATKQPVHEPKESAEIKAKDKQQQQPKKEQKQSAKVPETTNPSENPKEKQENKKGQAKNNKKGDPQTNKDKTNKSKDQAKGQPAPQANKETTQAAQALKQNPSKPAVQQKKDQVLAVDQKIEANGAIQKAQQPKPAETKSTDQKVEPKSAEKQVDKAKPIEQTKTKESKVEHPKPAQKQLDQNTQAKPTAERSEAKPVVPTPEPQKSAPPAVQTLAQIVALPAEKPANEAVAAPKAEEQKKDSSGPAKVEPAITPSAPQPVTTAEPPKSALKQDSPPKSAPKQGSPPKNVPKQESPPQSAPKQDSPPKGAPKQDSPPKGAPKQDSPPKGAPKQDSAPQQKTPPPVKQEVAPAKQDEPPAKQDAPPAKQDAPVPVPEVIKTLAPEVPNVSQAPAQPQGQAALASEKPADAPKAIEEPKAAPKKESPPPTKPVTATVPVAPATPAEAPSPLAPSTPPSTPTSVPPSAATVTPPSPATVTPPSPAVVTPPQKQSAAPQAGIKKQEAGTKTKQQQPANKPQQPQKQPPGGAGGSAGPGGNKGVQKQPNPNAKPAVAPKPAQATPKPAAASPKASPNQTNPQQQQGKAANKASPPKQTGPTGGQQKSAANASKATASPKSAASPKATSPKAGTPTNPASASGGPN” was “failed”.
Regarding “ADNRAKKHGHADLSIYREWVDEHPTVFTGYDELTTDSKVLGLLSAGNKVNEIKAGEEVEVILEASPLYAEAGGQLGDRGQILMGDTVLKVNDVQKIGKKLWVHKATVAQGGLSVGDVVTAQVDSDWRHAARQAHTGTHLIHAALRQVLGPTAVQAGSMNKPGYLRFDFNYTESLTPRQLEEIQNITNQAVDSDWDVNTIETSLEEAKAMGALALFGENYGSEVRVIEVGGPFSIELCGGTHVTHSSQIGPVAILGESSVGSGVRRIEAYTGLDSFKYLAKEQALVENIASSMKVKPEELPDRIAALTQKLKDAEKAIADMRSAQLMAQATGLVAGAIEVNGVKLVAQRVSDVENMGDLRSLAADIKQRLDDVPAVVALVGEDASGKAPFVVGATKAAVSAGYKANAYAKILGQYIEGNGGGKPDMAQGSARNSSGFDQGIAAVKAEMSA”, the protein production result is given as “failed”.
The value for “MPKLPLLLSFPLLFFASFAYADEDFVTCYSVLKFINANDGSRLHSHDVKYGSGSGQQSVTAVKNSDDINSHWQIFPALNAKCNRGDAIKCGDKIRLKHLTTGTFLHSHHFTAPLSKQHQEVSAFGSEAESDTGDDWTVICNGDEWLESEQFKLRHAVTGSYLSLSGQQFGRPIHGQREVVGTDSITGGSAWKVAEGIYIKHQQKDL” was “not failed”; that for “MLGYAAMNRTLRERDPPRRCNRDMQKKTWESEGIEYAATLAAQNFEDLREILLWNRDHGIDFYRCSSKLVPWNSQFDITALPNYERVQSLAAECGALVQDNDMRLTFHPSHWCKLASESDDTVARSVESVEHHGRWLDLMGVPRSPRYAINVHIGAHYGDKAATADRFCDVVSDLAPRARDRLTVENDDTESLWSVQELVTDVASQVDIPVTFDYHHHSFTDRGLTYREGFELARETWDGARPITHYSEPARLRPDSDASPQAHADHVAAVPTWL” was “failed”; that for “MNQEFFMLSQAMVEHLNEQINLEFFSSNLYLQMSAWCEDKGFDGAAEFLRAHAVEEMQHMQRLFTYVSETGALPILGAIAAPRHDFASLGEVFRETYQHEQKITQQINKLAHVAFTSQDYSTFNFLQWYVAEQHEEEKLFKGILDKLELVGEDGKALFFIDKDLAALAKKGSSSVMDAPAE” was “not failed”.
The entry for “MTGYGKTFALLGTCATLLGPPLSAQTGSVLSDLQNEEVQARYRAAAAERIACPRIEGDAALMAAFAKDAASKWDRAAMGCATEYGARAMEALSLPTNLIWAVATFRTDNIETHLQVLGAHLDYFEVLDKSYSAHYQGIEMATELGLRWEQARERSETLMTRIDPLVPKLTEARLLRAAYLLASTLRETPPEVQNTAVAAALEDLQIAIAENPEALDGLGPLLLGQVLAVLPEFLGGDILAAIDLLEQAHALNPTDLSVHHTLVEAYLGERETDKALALLRHAASIDPSTENPQDYADEMKYLGGLALRAGAPDLARQMAGHRSAILAAHPQLDPRKEMAALGHGGADPLTGKKPDDLN” is “failed”.
The value for “MVWFLILQLIVLLILVAFSATLMAKGTRELERSFGKGIAGGLILGFINALPETIIVIQAVLNGFYDIALGSALGGNILLLTLGIGLISIFYYLKYKSNIITLDSDINIEYSSFLLAVIILGIAIVYGKLNYYIGLFLLSPYIYYIYRRYKNYRGILKNEKNKGNAIKGLAYVMIGGLPLIFISKYLISTISSIASVFNVQPLILAILITPIAAELEENLTAIKLISDSPSSATTALMNFIGSKLENMTLLLSIIGISQTVSLRPSLLYLLLILATSLLALGIIKDRNIKVKEGLSLFGIYAILIAILLRFSA” was “failed”; that for “MNSNIYAVIVTYNPELKNLNALITELKEQNCYVVVVDNRTNFTLKDKLADIEKVHLICLGRNEGIAKAQNIGIRYSLEKGAEKIIFFDQDSRIRNEFIKKLSCYMDNENAKIAGPVFIDRDKSHYYPICNIKKNGLREKIHVTEGQTPFKSSVTISSGTMVSKEVFEIVGMMDEELFIDYVDTEWCLRCLNYGILVHIIPDIEMVHAIGDKSVKICGINIPIHSPVRRYYRVRNAFLLLRKNHVPLLLSIREVVFSLIHTTLIIATQKNKIEYMKKHILATLDGIRGITGGGRYNA” was “failed”.
Consider “MKHVDTEIPTEEQIHEAEKFGFHGQVQAAKIRFDRYFPGVLASITVAAAATFLSDHYGAPTMLFALLIGMAFRFLSEDESRALVGIQFASTTVLRIGVALLGMRITLGQIQSLGVKPVVMVFFSVLLTILFGLALSKMMGRGKRFGVLTGGSVGICGASAALAIAAVLPQDEYSERNTIFTVISITALSTLAMIAYPVVAQWFGLDHQAAGIFLGGTIHDVAQVVGAGYSVSEQTGDTATVIKLLRVSMLVPVVFILSLIFHKRNQKDGNAPRRTLLPPFIIFFVLFVGINSLGVVPKPATQFINDVSRWCLVTAIGALGMKTSLKSLFEVGWKPVSIMIAETVFLAVLVLGSVVWMS”, for which the protein production result was “failed”.
The entry for “MATKNSAPLASFIDLLLDAVCAVDVEGRFVFVSAACERVFGYTADELIGRPMIELVHPADRERTLQAAREIMGGVPKPNFENRYVRKDGRVAHILWSARWSEVDQLRIAVARDITERKQAESRQAALYAISEAAHATEDLLVLFRHVHRIIGEWLPALNCSLALYDERSASLSFPYHVDDCEGSPELPGTLIERFCVEVLQCGQPLLLAPECPVNRVLWSEFAAIQGSRCWLGVPLNSQKGTIGVLMVKSAPGTESYSEQDQELLQYVSAQLAAAIERKQLHARLHYMAEYDQLTHLPNRELLRERLRSALARARRESGRMALLYVDLDKFKEVNDTCGHAVGDMLLQAVANRLKGCVRETDTVARIGGDEFVILLESVQHSEDAQRVAEKIRRTLGEPLRLDGHSLNILPSIGIGLYPEHGLEEKQLFKHADEAMYAVKRAQKSRSNA” is “failed”.
Turning to “MSSLLGTFLYTLETTLPVFAMVFIGIGLRRIGWIDQGFIATASALVFKATLPTLVFLSIIRADLDTTLSISMLIFYFLATLASFALVWFWATKRVRQEDRGVYVQGAFRGNCGIVGLALAANLYGDYGLSAGGLLLGLVIVVYNSLSVIVLLAYQPGKTMSLSNTLRDIARNPLIIGVVLAIPFAAFEITLPGWVMTSGDYFASLTLPLALLCIGATVSLKSIRSDSGPAMGSSIWKMVSLPALCTLVAWLAGFEGRELGLMFLFFASPTAAASFVMVKALGGNDRMAANIIALTTLLASVTVTTGVFVLQSIGVA”, the protein production entry is on record as “failed”.
The entry for “MPSQSFNAFCPDWATALLNGFSQIFLQRHPLCGLLCLLAILVSAPALLGAALLGALAGLLTAQRRWYAKADRQAGLFSYNGVLLGLLLGLYLPWSVLLPPLIIAAGGLSAIITQQWLKRARNPASLPAYTAPFVGLGWLLLSLIEPLPAATQGVPGLSLANLLGGLFQGLGQIMFLGQPLAGLLILLGLLLASRRAAAWALFGSACGLLFALLLQEHAQALQGLGGYNCALVALALGQQARHPWRPLLGMLLALLISPGLVALGLAPLTAPFVLACWLVHTVDRVLGRNVRGDAPCAPPANPPRLR” is “failed”.
The entry for “HARKSLTVLVVGESARAENFGILGYGRNTTPNLNKENGLVAFTDVYSCGTETAVSVPCMFSNMGRKNYNATKARNQEGLLDVLKHAGIEVAWRDNQSGCKGTCDRVTFQDVSNLTDPLLCNSHECRDEILLQNLQGFIDSLDKDTVLVLHQMGSHGPEYYKRYPKEFEKFTPVCESNALNNCSRDSIVNAYDNTLLYTDHVLSTLIDLLRSNQAKVDTAMVYLSDHGESLGEYNLFLHGTPYVLAPDQQKHVPMLIWLSDTYQKSFAVTPDCLAKQRNAPLSQDNLFHSMLGLLKVDTKVY” is “failed”.
The entry for “ACTQPSDWVPPAKNDALVIALKKVIGGRLSDAFHIRDKLQRRDAIAAVKDDVIQQLAGRLEVEGWNLAELLKEFGELEYRTMRDALLDTKVRIDGRSLEAVRP” is “not failed”.
For the sequence “MTTTTNKAWRTICKATELVKDSGISALIANSAGEDEQIAIFHIPNSEEKIYAVGNYDPIGQANVLYRGLVGCIDDEPVVSSPLYKQHYSLKTGRCLQEDQTIAVYDIRIENEQVQLFYLEHHHHHH”, the protein production entry is recorded as “failed”.
